The record followed here is PMC8051604.

For assay [1], the target named is CitERF33, split-YFP fusion (BiFC) (Citrus reticulata cv. Suavissima (Ougan)).
Assay [2] deals with CitCHS2 (citrus chalcone synthase 2), pGADT7 fusion (Citrus reticulata cv. Suavissima (Ougan)).
The target in assay [3] is CitCHS1 (citrus chalcone synthase 1), pGADT7 fusion (Citrus reticulata cv. Suavissima (Ougan)).

In turn, “CitRAV1, split-YFP fusion (BiFC) (natural protein)” showed an activation of the CitCHIL1 promoter by CitERF33 and CitRAV1 together (dual-luciferase assay in N. benthamiana leaves, LUC/REN against empty vector; 1.6-fold for CitERF33/EV or CitRAV1/EV) in assay [1] of 10.6 fold.
Consider “CitCHIL1 (citrus type IV chalcone isomerase), pGBKT7 fusion (natural protein)”, for which, in assay [2], the k cat value of CitCHS2 for malonyl-CoA with CitCHIL1 against without it (in vitro chalcone synthase assay, purified recombinant proteins) was found to be 1.33 fold and the k cat value of CitCHS2 for p-coumaroyl-CoA with CitCHIL1 against without it (in vitro chalcone synthase assay, purified recombinant proteins) is 1.43 fold. For the same substance, in assay [3], the k cat value of CitCHS1 for malonyl-CoA with CitCHIL1 against without it (in vitro chalcone synthase assay, purified recombinant proteins) amounted to 1.86 fold and the k cat value of CitCHS1 for p-coumaroyl-CoA with CitCHIL1 against without it (in vitro chalcone synthase assay, purified recombinant proteins) was found to be 1.81 fold.
